Here are results for 5 substances from publication PMC10075959.

The target of assay [1] is 229E-related bat coronavirus N-protein LRS peptide (comprising the predicted helix) (229E-related bat coronavirus). Put plainly: AUC.
For assay [2], the target named is MERS N-protein LRS peptide (comprising the predicted helix) (MERS). Briefly: AUC.
In assay [3] the target is SARS-CoV N-protein LRS peptide (comprising the predicted helix) (SARS-CoV). Put plainly: AUC.
Assay [4] concerns the target human coronavirus NL63 N-protein LRS peptide (comprising the predicted helix) (human coronavirus NL63). Put plainly: AUC; sedimentation velocity of peptides at different concentrations, 20°C, 55,000 rpm, working buffer (10.1 mM Na2PO4, 1.8 mM KH2PO4, 2.7 mM KCl, 10 mM NaCl, pH 7.40), also with 10% TFE; c(s) distributions; monomer to oligomer (trimer).
Assay [5] addresses murine hepatitis virus (MHV) N-protein LRS peptide (comprising the predicted helix) (murine hepatitis virus). The assay is described as above.

Consider “229E-related bat coronavirus N-protein LRS peptide (comprising the predicted helix)”, for which the stoichiometry N in assay [1] was 3. For the substance “MERS N-protein LRS peptide (comprising the predicted helix)”, the stoichiometry N in assay [2] is 3. “SARS-CoV N-protein LRS peptide (comprising the predicted helix)”: the stoichiometry N in assay [3] was 3. Turning to “human coronavirus NL63 N-protein LRS peptide (comprising the predicted helix)”, the stoichiometry N in assay [4] is 3. With “murine hepatitis virus (MHV) N-protein LRS peptide (comprising the predicted helix)”, in assay [5], the stoichiometry N was 3.
